In assay [1] the target is RSV A + RSV B bivalent composition (RSV subtype A; RSV subtype B). Kind of assay: AM14 prefusion assay relative to standard; RSV A + RSV B 240 µg/mL each, 2% sucrose + 4% mannitol; post-lyo T0.
Assay [2] shares this target. Kind of assay: AM14 prefusion assay relative to standard; RSV A + RSV B 240 µg/mL each, 2% sucrose + 4% mannitol; post-lyo 2 months at 5°C.

Results on one substance are retold here after US20260097113A1 (Pfizer, published 2026).

Sequence of AM14 (trimeric prefusion specific antibody of the AM14 ELISA) (VH): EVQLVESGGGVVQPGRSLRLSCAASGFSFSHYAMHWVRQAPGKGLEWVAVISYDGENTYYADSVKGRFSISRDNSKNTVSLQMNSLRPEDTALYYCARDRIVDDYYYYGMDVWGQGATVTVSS
Sequence of AM14 (trimeric prefusion specific antibody of the AM14 ELISA) (VL): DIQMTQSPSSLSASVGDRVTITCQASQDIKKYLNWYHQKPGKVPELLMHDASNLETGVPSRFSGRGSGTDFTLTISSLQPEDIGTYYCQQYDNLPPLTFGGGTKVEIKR

As to “AM14 (trimeric prefusion specific antibody of the AM14 ELISA)”, the AM14 Prefusion Content (%), relative to standard in assay [1] was 81%; in assay [2], 116%.
